Test results published in publication PMC6509496, “Crystal structure of the TreS:Pep2 complex, initiating α-glucan synthesis in the GlgE pathway of mycobacteria” (The Journal of Biological Chemistry, 2019).

Tested on: T1, Nc1ncnc2c1ncn2[C@@H]1O[C@H](COP(=O)(O)OP(=O)(O)OP(=O)(O)O)[C@@H](O)[C@H]1O
T1 construct: full length (441 residues), N-terminal His6 tag (pET28a), E. coli BL21(DE3); monomer
Assay: coupled pyruvate kinase / lactate dehydrogenase assay, NADH depletion
Type: biochemical, Mycolicibacterium smegmatis
Details: 20 mM maltose, 10 mM MgCl2, 50 mM sodium phosphate pH 7.5, 300 mM NaCl, 10% glycerol, no TreS
Text: coupled pyruvate kinase / lactate dehydrogenase assay, NADH depletion on Msm Pep2 (M. smegmatis maltokinase, MsPep2)

Substance: Msm Pep2 (M. smegmatis maltokinase, MsPep2) (Mycolicibacterium smegmatis MC2 155)
- Km: 0.076 ± 0.007 mM
